From US20220289816A1, “IMMUNOTHERAPY WITH B*07 RESTRICTED PEPTIDES AND COMBINATION OF PEPTIDES AGAINST CANCERS AND RELATED METHODS” (Immatics Biotechnologies GmbH, priority 2018, published 2022) come the findings set out here.

For the test, the target named is HLA-B*07 (Homo sapiens, UniProt P01889). The test is described as follows: MHC binding assay (UV-ligand exchange, ELISA of stabilized MHC complexes). As to conditions: peptide exchange yield on HLA-B*07, UV-ligand exchange. The source says: Candidate peptides for T cell based therapies according to the present invention were further tested for their MHC binding capacity (affinity). The individual peptide-MHC complexes were produced by UV-ligand exchange, where a UV-sensitive peptide is cleaved upon UV-irradiation and exchanged with the peptide of interest as analyzed. Only peptide candidates that can effectively bind and stabilize the peptide-receptive MHC molecules prevent dissociation of the MHC complexes. To determine the yield of the exchange reaction, an ELISA was performed based on the detection of the light chain (β2m) of stabilized MHC complexes. The assay was performed as generally described in Rodenko et al. (Rodenko et al., 2006)
96 well MAXISorp plates (NUNC) were coated over night with 2 ug/ml streptavidin in PBS at room temperature, washed 4× and blocked for 1 h at 37° C. in 2% BSA containing blocking buffer. […] Peptide-MHC monomers of the UV-exchange reaction were diluted 100-fold in blocking buffer. Samples were incubated for 1 h at 37° C., washed four times, incubated with 2 ug/ml HRP conjugated anti-[…] for 1 h at 37° C., washed again and detected with TMB solution that is stopped with […]. Absorption was measured at 450 nm. Candidate peptides that show a high exchange yield (preferably higher than 50%, most preferred higher than 75%) are generally preferred for a generation and production of antibodies or fragments thereof, and/or T cell receptors or fragments thereof, as they show sufficient avidity to the MHC molecules and prevent dissociation of the MHC complexes.
(ELISA stands for enzyme-linked immunosorbent assay.)
“2 (VPGSDPARYEFL; listed as Homo sapiens) [compound 2]”: the Peptide exchange entry was “+++ (>50 = +++)”.

With “7 (RPSQLAPATL; listed as Homo sapiens) [compound 7]”, the Peptide exchange result was “+++ (>50 = +++)”.

For “8 (MPKTNLSKM; listed as Homo sapiens) [compound 8]”, the Peptide exchange entry is “+++ (>50 = +++)”.

Regarding “10 (SPMEAELVRRIL; listed as Homo sapiens) [compound 10]”, the Peptide exchange entry is listed as “++++ (>75% = ++++)”.

Turning to “11 (APLPRPGAV; listed as Homo sapiens) [compound 11]”, the Peptide exchange result was “++++ (>75% = ++++)”.

In the case of “13 (LPNTGRIGQL; listed as Homo sapiens) [compound 13]”, the Peptide exchange entry was “+++ (>50 = +++)”.

“14 (AVHEIGHSL; listed as Homo sapiens) [compound 14]”: the Peptide exchange result is on record as “+++ (>50 = +++)”.

On to “15 (KPGFNISIL; listed as Homo sapiens) [compound 15]”, for which the Peptide exchange entry was “++++ (>75% = ++++)”.

For “16 (FPAPPAHWF; listed as Homo sapiens) [compound 16]”, the Peptide exchange result is “++++ (>75% = ++++)”.

On to “18 (MALSVLRLAL; listed as Homo sapiens) [compound 18]”, for which the Peptide exchange result is listed as “++ (>20% = ++)”.

“19 (WPRLPGAGL; listed as Homo sapiens) [compound 19]”: the Peptide exchange result is given as “+++ (>50 = +++)”.

For “20 (MVLGIGPVL; listed as Homo sapiens) [compound 20]”, the Peptide exchange entry was “++++ (>75% = ++++)”.

On to “22 (LPQLKPAL; listed as Homo sapiens) [compound 22]”, for which the Peptide exchange result is listed as “++++ (>75% = ++++)”.

As for “25 (RPQGAVGGL; listed as Homo sapiens) [compound 25]”, the Peptide exchange entry is on record as “+++ (>50 = +++)”.

As for “27 (RIRVTSEVL; listed as Homo sapiens) [compound 27]”, the Peptide exchange entry was “+++ (>50 = +++)”.

As to “28 (LPAPTSLVL; listed as Homo sapiens) [compound 28]”, the Peptide exchange entry was “++++ (>75% = ++++)”.

Regarding “29 (APLRVHITSL; listed as Homo sapiens) [compound 29]”, the Peptide exchange result is “++++ (>75% = ++++)”.

“30 (YPGFTKRL; listed as Homo sapiens) [compound 30]”: the Peptide exchange result is “+++ (>50 = +++)”.

For the substance “31 (RPGPSDPAA; listed as Homo sapiens) [compound 31]”, the Peptide exchange entry is on record as “+++ (>50 = +++)”.

Consider “32 (APMAPGRSPL; listed as Homo sapiens) [compound 32]”, for which the Peptide exchange entry is listed as “++++ (>75% = ++++)”.

On to “34 (APMAPGRSP; listed as Homo sapiens) [compound 34]”, for which the Peptide exchange entry was “+++ (>50 = +++)”.

In the case of “35 (APLPPPRAL; listed as Homo sapiens) [compound 35]”, the Peptide exchange result was “+++ (>50 = +++)”.

As for “36 (RPFSREMDL; listed as Homo sapiens) [compound 36]”, the Peptide exchange result is reported as “+++ (>50 = +++)”.

As to “37 (LPPPRALTL; listed as Homo sapiens) [compound 37]”, the Peptide exchange result is reported as “+++ (>50 = +++)”.

With “39 (QPRPSSEKI; listed as Homo sapiens) [compound 39]”, the Peptide exchange entry was “+++ (>50 = +++)”.

On to “40 (FPRTVKHIDAAL; listed as Homo sapiens) [compound 40]”, for which the Peptide exchange entry is given as “++++ (>75% = ++++)”.

As to “41 (MPAGGGPRSL; listed as Homo sapiens) [compound 41]”, the Peptide exchange result is given as “++++ (>75% = ++++)”.

On to “42 (APLKMLAL; listed as Homo sapiens) [compound 42]”, for which the Peptide exchange entry is on record as “++++ (>75% = ++++)”.

In the case of “43 (APTPRPKVL; listed as Homo sapiens) [compound 43]”, the Peptide exchange entry is recorded as “++++ (>75% = ++++)”.

Consider “44 (SPSQTVQRAV; listed as Homo sapiens) [compound 44]”, for which the Peptide exchange result is reported as “++++ (>75% = ++++)”.

For the substance “46 (QPISGNPVTL; listed as Homo sapiens) [compound 46]”, the Peptide exchange entry is listed as “+++ (>50 = +++)”.

On to “47 (RPRQTGALM; listed as Homo sapiens) [compound 47]”, for which the Peptide exchange entry was “++++ (>75% = ++++)”.

Regarding “50 (PEKARAFL; listed as Homo sapiens) [compound 50]”, the Peptide exchange entry is given as “+++ (>50 = +++)”.

For the substance “52 (KEDNPSGHTYTL; listed as Homo sapiens) [compound 52]”, the Peptide exchange result is on record as “+++ (>50 = +++)”.

As for “54 (VPSCGRSVEGL; listed as Homo sapiens) [compound 54]”, the Peptide exchange result is given as “+++ (>50 = +++)”.

In the case of “60 (RPYSIYPHGVTF; listed as Homo sapiens) [compound 60]”, the Peptide exchange result was “++++ (>75% = ++++)”.

With “62 (KPQSTISGL; listed as Homo sapiens) [compound 62]”, the Peptide exchange result is listed as “+++ (>50 = +++)”.

Turning to “63 (FPHMATTAF; listed as Homo sapiens) [compound 63]”, the Peptide exchange result was “+++ (>50 = +++)”.

In the case of “65 (FPNVYSTLVL; listed as Homo sapiens) [compound 65]”, the Peptide exchange entry is listed as “++++ (>75% = ++++)”.

As to “66 (LPMTVISVL; listed as Homo sapiens) [compound 66]”, the Peptide exchange result was “++++ (>75% = ++++)”.

“67 (VPVSRPVL; listed as Homo sapiens) [compound 67]”: the Peptide exchange result is on record as “++++ (>75% = ++++)”.

On to “69 (RPEDGRPRL; listed as Homo sapiens) [compound 69]”, for which the Peptide exchange entry is recorded as “+++ (>50 = +++)”.

Consider “70 (VPAQRLGLL; listed as Homo sapiens) [compound 70]”, for which the Peptide exchange entry is given as “++++ (>75% = ++++)”.

Turning to “71 (APFAPLHGGGSL; listed as Homo sapiens) [compound 71]”, the Peptide exchange entry is “+++ (>50 = +++)”.

With “72 (APCNGNVAV; listed as Homo sapiens) [compound 72]”, the Peptide exchange entry is on record as “+++ (>50 = +++)”.

Take “73 (LPVSSPVTL; listed as Homo sapiens) [compound 73]”: the Peptide exchange entry is reported as “++++ (>75% = ++++)”.

On to “74 (VPVSHPVL; listed as Homo sapiens) [compound 74]”, for which the Peptide exchange entry is “++++ (>75% = ++++)”.

Regarding “75 (HVRPQTNCI; listed as Homo sapiens) [compound 75]”, the Peptide exchange result is “+++ (>50 = +++)”.

As to “76 (KPKVESQAL; listed as Homo sapiens) [compound 76]”, the Peptide exchange entry is on record as “++++ (>75% = ++++)”.

With “77 (QPRLVPGETL; listed as Homo sapiens) [compound 77]”, the Peptide exchange entry was “++++ (>75% = ++++)”.

As to “78 (HPSQESPTL; listed as Homo sapiens) [compound 78]”, the Peptide exchange entry was “+++ (>50 = +++)”.

For “79 (GPASDHPSL; listed as Homo sapiens) [compound 79]”, the Peptide exchange entry is listed as “+++ (>50 = +++)”.

“80 (SALPTTISF; listed as Homo sapiens) [compound 80]”: the Peptide exchange result is on record as “+++ (>50 = +++)”.

Consider “81 (IAYPSLREAAL; listed as Homo sapiens) [compound 81]”, for which the Peptide exchange entry is “++ (>20% = ++)”.

Take “83 (AVSSHHNVI; listed as Homo sapiens) [compound 83]”: the Peptide exchange entry was “++ (>20% = ++)”.
